assay: soluble on expression in E. coli; label from the status in PepcDB or PDB records

Sequence	soluble on expression in E. coli
MAIPYVVRKKADLTSGERKELWYGVPSKIQDRGGVQNKELAQVVELRGGFHRGQVEGILVEVADAIRYLLSMGQSVTIDGLGTFQTALTSPGFERPEQVTPGQVSVSRVYFVANSALRDRMKKTKCMRIPFKYYMSESMLTKEMKKADQEQEQTEE	not soluble
MSLKGTDRIKVLHMSDFHIDPRYATGSEGNCTSGLCCRRGNPVESLNSNYTVSVPAPRFGYFLCDTPWALGAAAVEAIPVLTGTDEDDAFNMTIFTGDMVSHDPYYELSRDYIEYTETALYDLWKQTLNPTSPLYAAIGNHDSYQQAFDAPSSLPGKLRKQSSWNYEHLAGLWESEGWIDGEVAQKVKTHYGAYSIQHATNLKIITINTDLWYRANIFAYINSTHPDNFGFLKFLAEELQEAEDCNSRAYIVGHVLSGYDGTNPLPGPTDIFYQIIDRYSHVIAGLFWGHTHEDQHMIYYANNGTKMSAETAQNVGWIGPSITPLTDLNSGFRLYEVDAETWDILDAHTWYSNVSTYSSLDGQLEVGPSYVYEYNTRQAYGGNISWPDNAPLNATWWHLVSQDMENDGGALVELYNAHQGKMSTLSPNCTSAECIEAKVCYLRSGSGTLALDNCKTGYGSVQEGHHHHHH	not soluble
MDTLDGLKTVVAVVETNSFTAASDRLGISKALVSKYVGEVENQLGIRLFNRTTRQLALTDSGRRYYEEAIILLEQFSAMVDNVTGEQTAPRGLLRISAPVTFGEMRLAPLLPKFIALYPDLTVELVLTNGAIDMLEEGIDVRLRIGGVDDSNMIARHLTNFPLVLSASPNYAQTQGLPTTPEQLGEHHCIIDSNFRIGKQWPFISPKGRAETINVQSGLAVNSPQAVREIAIADGGIAMTPNFIVEDALADGRLLRVMPEYTTLEFGLFAIYPHRKYVARKVRCFIDFVLEQFSKK	not soluble
MRLFAIVLLCLVLATCASHIPSARVTHPASAGLPGLQGFQLMPPEQAVDALPYRNRYPLINAELRQGLAAHGYHESATPQFRVYYWLALRDAPLEFRPDLPPTSGMGPYLAIHRLRDETGTLRVRLVDLEERVLWEGMVSTGLSPARANPEQLELAVGALLRQLPRAR	not soluble
MGSDKIHHHHHHMKKLVENLLSWCKKSMKMRRCVGKSTAPVTGQSVGQTGNAEGVLPSTATETVDEIVLPAAVETAGMVETIDEKAAFGKSGRKKPENMLDALQRFLTIRYDFRYNLLTEQTEYRGKEMPDEEYAMVAQRDLNTFCLEARTGGINCWDKDVSRLLHSRKVENYHPFLHYMSHLPQWDGVDRVTPLAVRISRKPMWVKGFHRWMLGVAAQWLGQAQDCANAVAPMLVSREQGKRKSSFCKILMPKELTPYYIDKFDLTSESGCEQKLSLFGLINMDEFDKYRAGQMPALKNLMQTTTLTFRRAHRPAFSHLPRIASFIGTSNMTDLLTDPTGSRRFLCAEVDGKIDCTPPDHAQLFAQLKAELAGGERYWFSEEEEKEIQHSNRNFYKMPAEQELFLRCFRMPQEGELSKPYTTTDLFNYLQKHYPAAMRGVTPNRLGRMMVALGIQRVHTEYGNVYRLVKLKDSSAA	not soluble
MRRFQRSTVIDAPRELVWAFHEQADVLEQLTPPWLPVEVVRREGGLGPGAVSEFRLWLGPVPIRWVATHNDDYEPGRCFCDRQSQGPFADWLHRHIFSREGDRTRLIDEVEYALPGGWLPELSVGPVVDAQLERLFAYRQQVTKQWCESRRDAFLQSNRTTKGLQSLLEHHHHHH	soluble
MGSDKIHHHHHHMIDFDSLTHDQQLGILQETAEAATANYDLPADVSVDMINLSENATYKIAARDGRRWALRIHRDGYHSRTAIQSELAWLTDLRQTGIVLTPVPVAGKDGEQIQRVGHARLAQPRHVVLSQWETGSEPGIGEALGEPFELLGEVTARMHIHARQWKRPSWFSRHVWDFETSLGEERPHWGRWRDGIGVDAAKARLFGRTAELIGRRLAAFGKGHDRFGLIHCDLRLANLLIDGKTVKVIDFDDCGFGWYMYDAATPISFYEHEPQAADLIRSWTTGYRRVLDLPKADEDEIPTFVMLRRLLLVAWIGSHAETDLAKSMGLPYTEGTVGLCEAYLSKF	not soluble
MSLMRDITPDLCDKYESQVTLLNLPLQNFGQRSAFWGEIVTVRCYHDNSKVRDVLSQNGKGKVLVVDGHGSCHKALMGDQLAILAIKNDWEGVIIYGAVRDVVAMSEMDLGIKALGTSPFKTEKRGAGQVNVTLTMQNQIVEPGDYLYADWNGILMSETALDVAEGGSHHHHHH	soluble
RYLLRATTDDLYLVHDRQVAPFDGDLNDYYKWLTEQQKAERKEAQALQPVKDTANSAAAKKEQKRREAEFRKLTAPIRKTLTQLENKMDKLGVALAEAEEQLADNSLYEAENKAKLNEVLALQASSKSELEEVEMEWMSAQEELEQMELEFNQ	not soluble
MGSDKIHHHHHHMEEYFNGLLKEVDQRMATTAPGMDGKEVIGVCREMVSYLKGKNRELKEYALAHPFAGDAKEILYFKYYKPALTGRLLYYYRVYQIESGCPACLRVAEPYYRKAMERAERMMERYLPFYQYYHSGATYRDSYYFLRAKGELSPESGSFVLDEEAEFSTGYDILAARLISVEMLLVHLSRRMERAAQGTETEAVPEKEHRWTNTKVAAILLVYGIHVTGSVDEGNAEIGELAALFEKHFHVDLGNVYHAFGRLRGQQNPTAFLDEMKERLLKKMRDMDSR	not soluble
MEFFGESWKKHLSGEFGKPYFIKLMGFVAEERKHYTVYPPPHQVFTWTQMCDIKDVKVVILGQNPYHGPNQAHGLCFSVQRPVPPPPSLENIYKELSTDIEDFVHPGHGDLSGWAKQGVLLLNAVLTVRAHQANSHKERGWEQFTDAVVSWLNQNSNGLVFLLWGSYAQKKGSAIDRKRHHVLQTAHPSPRSVYRGFFGCRHFSKTNELLQKSGKKPIDWKEL	soluble
MFENESLSFEEQTIIQAAERYVQQELANEASGHDWWHIYRVTQLAKTIAEKEQANLFLCILTALLHDIGDEKFNESEEAGLLKVQQWLEANNVSTEQTNHILSIIANMSFKGGNTGKTVTTLEGKVVQDADRLDAIGAIGIARVMAYSGNKGRLIHDPHKQPREQLTQEEYRNGEDTAIMHFYEKLLKLKEQMNTNYGRLLAEKRHQFMELYLEEFYQEWDGHR	not soluble
MSEFWKARNWQRKFLVTGRRCFHPMELFSEIKNRYFQLMFRIINECAEGKSKSEVLKIIDEGEFGQKVIGKNQKSFSDLVLNRCAPDENLNLLIEKDGMYYPSIMNSDESGNMAGNAAKKITRPPLPVRFSQIEKAWLKALLDKEEARMILSRETFDKLQKELAGIDTPIKDEYFEFTNKIKLPEIANQKAYEENFRLLLNAIIQEKPIRYNNIDKKGNMYNDRLALPVSIEYSMRDGRFRVSMYLLDENRPVMANVFTLSDIRIVDEDVGFDRETAKRLLLEQKYSEEPIILEVTDEKAAMERCFMCFSGMERTARSLGNNKYEIKLNYYLFEEENLIRNIISLGPYVKVISPQRIVDEVVARVKKAISLYNI	not soluble
SAGPQQQPPYLHLAELTASQFLEIWKHFDADGNGYIEGKELENFFQELEKARKGSGMMSKSDNFGEKMKEFMQKYDKNSDGKIEMAELAQILPTEENFLLCFRQHVGSSTEFMEAWRKYDTDRSGYIEANELKGFLSDLLKKANRPYDEPKLQEYTQTILRMFDLNGDGKLGLSEMSRLLPVQENFLLKFQGMKLTSEEFNAIFTFYDKDRSGYIDEHELDALLKDLYEKNKKEMNIQQLTNYRKSVMSLAEAGKLYRKDLEIVLCSEPPM	soluble
MAGDPMVMRLSKIYGKQIYTTKGKYVGYVDEVIIDIDEGRGEVVLLALPGERVGVPYERVTAVGDIILVEATTEKKRISQEGLEHHHHHH	not soluble
MSLTLAFAYVRASTIEEVRQGSNERQKEAIRQYTYQKGYELEIFEDKAKSGRNTLRPEFERMLKSLDRRPQIVIVSKIDRFARSLSDLLKTLEYLDQNGVGFVSVNDPGIDTTTPNGRLLLQILGAFAEFERNMINSRTKAGREQAQSKGVKFGRPPLKTRNGSFIDRRKVMELKQKGLSARAIAKSLECSTTPILRILRENEGHHHHHH	soluble
MKAVVFDFDGTMLDTENLWYTETMKYLKDTYNIDLPDEIYQQIIGTSEEPIISYMMEATNGAFDKEAFLTTVAEACHLGQQSLGFRNGFKEFFEQVKANGYKIGLATSSGFDWIEPTLDRLGILADFETIQTADHVEEIKPHPALYLQAVEALGVKPEEAIAIEDSKNGALSALQAGLKVYIVPNEATKNITFPKEATVVSSFAEIKLK	not soluble
MSGMILDELSWRGLIAQSTDLDTLAAEAQRGPMTVYAGFDPTAPSLHAGHLVPLLTLRRFQRAGHRPIVLAGGATGMIGDPRDVGERSLNEADTVAEWTERIRGQLERFVDFDDSPMGAIVENNLEWTGSLSAIEFLRDIGKHFSVNVMLARDTIRRRLAGEGISYTEFSYLLLQANDYVELHRRHGCTLQIGGADQWGNIIAGVRLVRQKLGATVHALTVPLVTAADGTKFGKSTGGGSLWLDPQMTSPYAWYQYFVNTADADVIRYLRWFTFLSADELAELEQATAQRPQQRAAQRRLASELTVLVHGEAATAAVEHASRALFGRGELARLDEATLAAALRETTVAELKPGSPDGIVDLLVASGLSASKGAARRTIHEGGVSVNNIRVDNEEWVPQSSDFLHGRWLVLRRGKRSIAGVERIGLEHHHHHH	soluble
MSFKDYEYKRPNIEELKEKFTVALEKFDNAKTVEEQKQVIHSINEIRNDFGTMGNLCYIRHSVDTTDAFYKEEQDFFDEFSPVVQGYGTKYYNALIHSPFREELEAYYGKQLFALAECDLKTYSDEVVKDLQLENKLSSQYTQLLASAKIDFAGEERTLSQLIPFMQGKERSERKAASEAYYGFLAENEEELDRIYDELVKVRTKIAKSLGFKNFVELGYARMYRTDYNAEMVANYRQQVLDYIVPVTTELRKRQQARIGVEKLAYYDENFEFPTGNPTPKGDADWIVNHGKTMYKELSAETDEFFNFMLDNDLLDLVAKKGKAGGGYCTYIENYKAPFIFSNFNGTSGDIDVLTHEAGHAFQVYESRKFEIPEYNWPTYEACEIHSMSMEFFTWPWMKLFFEEDADKYYFSHLSSALLFLPYGVSVDEYQHYVYENPEASPEERKTAWRNIEKKYLPHRDYEDNDYLERGGFWQRQGHIYSSPFYYIDYTLAQICALQFWKRARDNRQEAWEDYVNLCQQGGSKSFLELVEVANLTSPFAEGCVKSVITEIEAWLHAIDDTKL	not soluble
NRLLSKYDPQKEAELRTWIEGLTGLSIGPDFQKGLKDGTILCTLMNKLQPGSVPKINRSMQNWHQLENLSNFIKAMVSYGMNPVDLFEANDLFESGNMTQVQVSLLALAGKAKTKGLQSGVDIGVKYSEKQER	soluble
MKVGSQVIINTSHMKGMKGAEATVTGAYDTTAYVVSYTPTNGGQRVDHHKWVIQEEIKLEHHHHHH	not soluble
MIKKLPLFIIVCLLAISSQALAETELEIEGLEGPLLSNVEAYISGIPEEDYSVSLRFQARLQESITDALKALGYYQSTTTFVVEGDTSDRTLLVNIDAGQPVIIYVSDIVISGEAAADEDFINAVDNSGLNLGQVINHGRYESLKSTLQNLALRKGYFDGDFTTNRLEIAPGRHQAIVRIHYDSGKRYSFGETSIDGSQIEEKRVRSIIPFQAGDPYLASQVGELNQYLSNTEWFSSVYVEPDIDAVGKTYQLPMKVHLSPQVRNQLETSIGYATDVGARGKIRWKKPWLNPEGHSLDTALSISKPEQEATISYKIPLEQVLKDYYVVKYGLKNVDNNDTDSLESNLAFERHWVYDSGWHRTIYTRFLYEEFTQGVQDGTAWLVLPGISFSKSRSRGGTMPMWGDKKAFTIEATDQALTSDVKLLRLQAQGAIVRSIGENHRGVARADIGAIYTDDFYKLPPSIRFFAGGDNSIRGYGYEEVSPKDSEGYLTGGQYMATASLEYQYRVVGNWWVATFVDYGDAWLDTPDWKMGTGVGIRWASPVGPVRLDFAWGLDAEPGDEFKIHFTLGPEVLEHHHHHH	soluble
